Results: article PMC7496328

B1: unnamed (parent)
chain: MFGLGHNSKEISMSHIGTKFILAEKFTFDPLSNTLIDKEDSEEIIRLGSNESRILWLLAQRPNEVISRNDLHDFVWREQGFEVDDSSLTQAISTLRKMLKDSTKSPQYVKTVPKRGYQLIARVETVEEEMARESEAAHDISQPESVNEYAESSSVPSSATVVNTPQPANVVTNKSAPNLGNRLLILIAVLLPLAVLLLTNPSQTSFKPLTVVDGVAVNMPNNHPDLSNWLPSIELCVKKYNEKHTGGLKPIEVIATGGQNNQLTLNYIHSPEVSGENITLRIVANPNDAIKVCE

Variants of: B1
Settings: with partner chain of the complex shown; read off a plot

In order of falling response:
1. MFGLGHNSKEISMSHIGTKFILAEKFTFDPLSNTLIDKEDSEEIIRLGSNESRILWLLAQRPNEVISRNDLHDFVWREQGFEVDDSSLTQAISTLRKMLKDSTKSPQYVKTVPKRGYQLIARVETVEEEMARESEAAHDISQPESVNEYAESSSVPSSATVVNTPQPANVVTNKSAPNLGNRLLILIAVLLPLAVLLLTNPSQTSFKPLTVVDGVAVNMPNNHPDLSNWLPSIELCVKKYNEKHTGGLKPIEVIATGGQNNQLTLNYIHSPEVSGENITLRIVANPNDAIKVSE [chain 1 C293S]  45%
2. MFGLGHNSKEISMSHIGTKFILAEKFTFDPLSNTLIDKEDSEEIIRLGSNESRILWLLAQRPNEVISRNDLHDFVRREQGFEVDDSSLTQAISTLRKMLKDSTKSPQYVKTVPKRGYQLIARVETVEEEMARESEAAHDISQPESVNEYAESSSVPSSATVVNTPQPANVVTNKSAPNLGNRLLILIAVLLPLAVLLLTNPSQTSFKPLTVVDGVAVNMPNNHPDLSNWLPSIELCVKKYNEKHTGGLKPIEVIATGGQNNQLTLNYIHSPEVSGENITLRIVANPNDAIKVSE [chain 1 C293S W76R]  5%
